Results as given in PMC270082.
pKd: −log10 of the molar value.

What was measured:
[1] = target: PcrG (residues 1-98) (P. aeruginosa strain CHA); assay: native MS
[2] = target: PcrG (1-74) (P. aeruginosa strain CHA); assay: SPR
[3] = target: PcrG (residues 1-98) (P. aeruginosa strain CHA); assay: SPR

PcrV (from UniProt G3XD49 1-294) (natural protein)
stoichiometry N [1]: 1
pKd [2]: 7.81
koff [2]: 0.00491 s⁻¹
kon [2]: 316000 M⁻¹ s⁻¹
pKd [3]: 7.81
koff [3]: 0.00694 s⁻¹
kon [3]: 445000 M⁻¹ s⁻¹
